Source: paper PMC12486124 (bioRxiv, 2025)

Target: reconstituted nucleosome (Xenopus laevis histone octamer on Widom 601 DNA) (Xenopus laevis)
Assay: fluorescence polarisation

Kd: 120 ± 10 nM
B1: E2F1-DP2 DNA binding domains heterodimer (complex)
chain 1: not shown
chain 2: KNGKGLRHFSMKVCEKVQRKGTTSYNEVADELVSEFTNSNNHLAADSAYDQKNIRRRVYDALNVLMAMNIISKEKKEIKWIG
